Assays:
[1] = target: T1, p40 peptide amino acids 1-17 (MLYLENNAQTQFSEPQY) (human); test: epitope mapping, peptide ELISA and dot blot
T1 peptide: MLYLENNAQTQFSEPQY
Source text: (§1) In order to determine the peptide sequence of p40 that is recognized by anti-p40 antibodies such as BC28, epitope mapping may be conducted perhaps using two assays: direct ELISA and even dot blot. In an ELISA assay, the sensitivity and specificity of the anti-p40 [BC28] antibody may be determined by measuring the antibody titer at about 1:500 and about 1:1000. Overlapping peptides at a length of about 15 amino acids each, covering the human p40 protein sequence from perhaps 1 to 17 amino acids, may be used to determine a sequence of BC28 binding.

[2] = target: T2, p40 peptide amino acids 1-9 (MLYLENNAQ) (human); test: epitope mapping, peptide ELISA and dot blot
T2 peptide: MLYLENNAQ
Source text: as §1

- binding result [1]: binds
- binding result [2]: binds
B1: mouse monoclonal anti-p40 antibody BC28 (antibody, mouse IgG1, V domains shown)
VH: GVKLVESGGGFVKPGGSLTLSCAASGFTFSIYAMSWVRQTPEKRLEWVTSISSGDDIFYPDNLKGQFTISRDNARNILYLQMSSLRSEDTAIYYCVRHGYNATDYWGQGTSVTVSS
VL: DVLMTQTPLSLPVSLGDQASISCRSSQSIVYSNGNTYLEWYLQKPGQSPKLLIYKVSNRFSGVPDRFSGSGSGTDFTLKISRVEAEDLGVYYCFQGSHVPFTFGSGTKLEIK
notes: also called p40 [BC28]; p40 (M)
